The nature of the data set: protein stability index of a GFP-peptide fusion (GPS, HEK-293T) (PSI 1-6); higher = more stable.
Setting [1] is: treatment: DMSO, c terminus: a fixed tail appended.
Setting [2] is: treatment: MLN4924 1 uM, 8 h, c terminus: a fixed tail appended.
Setting [3] is: treatment: DMSO, c terminus: native.
Setting [4] is: treatment: MLN4924 1 uM, 8 h, c terminus: native.

± gives the standard deviation.
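Note: 24-mer peptide tiles fused after GFP, lentivirally expressed, FACS-sorted into six equal bins by GFP/DsRed ratio, decoded by Illumina sequencing, PSI is the read-weighted mean bin number.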

As to HPMYRRLVHSAVDVPTIQEKVNEG [ZMYND11], the protein stability index is 4.11 ± 0.36 under setting [1] and 4.3 ± 0.17 under setting [2].

Regarding HQRTHSEEETYKCLECGKSFCHGS [ZNF449], the protein stability index runs as follows: under setting [1], 4.63 ± 0.3; under setting [2], 4.59 ± 0.3.

HRGCGDGCCCPSCYRRYRFTGFY [KRTAP19-2]: the protein stability index came out at 2.83 ± 0.59 under setting [3] and 3.31 ± 0.47 under setting [4].

On to HTLPVNRETLKRKVSGNRCASPVT [ESR2], for which the protein stability index is, setting by setting: under setting [1], 4.07 ± 0.14; under setting [2], 4.24 ± 0.15.

For HVLHHGTGKWYELQDLQVTDILPQ [USP39], the protein stability index amounted to 2.82 ± 0.4 under setting [1] and 2.95 ± 0.39 under setting [2].

As to HVSDEDNNADLCLTDDKQVLNTQG [DLC1], the protein stability index worked out at 5.34 ± 0.23 under setting [1] and 5.46 ± 0.13 under setting [2].

Turning to ICFCCEEFQPAKCTDKENALKLFP [FAM189A2], the protein stability index reads like this: under setting [1], 2.37 ± 0.036; under setting [2], 2.58 ± 0.25.

As for ICGLQQDEEVSSLTCDALTELLAK [CCND2], the protein stability index runs as follows: under setting [1], 3.48 ± 0.29; under setting [2], 3.74 ± 0.36.

Turning to IDCGKAFSQKSCLVAHQRYHTGKT [ZNF649], the protein stability index reads like this: under setting [1], 2.83 ± 0.24; under setting [2], 2.87 ± 0.16.

For the sequence IDKKPVSEKTDESDTIPYLKKFLY [MIA2], the protein stability index came out at 2.83 ± 0.57 under setting [1] and 2.95 ± 0.4 under setting [2].

For IDSYDPSTGEVYCRVPNSGKDEIE [ALDH8A1], the protein stability index worked out at 4.97 ± 0.2 under setting [1] and 4.92 ± 0.2 under setting [2].

Consider IEDAAEPKEPAPPNGSAAEPPTEA [PALM], for which the protein stability index runs as follows: under setting [1], 5.54 ± 0.24; under setting [2], 5.47 ± 0.22.

Take IEDFQQKILLTKSENARLVLQIDN [KRT36]: the protein stability index runs as follows: under setting [1], 2.79 ± 0.25; under setting [2], 2.8 ± 0.23.

With IEEDMNNSIAHYRQVNIRTANCTT [KCNA1], the protein stability index came out at 3.71 ± 0.55 under setting [1] and 3.57 ± 0.48 under setting [2].

In the case of IEENITSAAPSNDQDGEYCPEVKL [SRPK2], the protein stability index under setting [1] came out at 5.5 ± 0.17 and the protein stability index under setting [2] was found to be 5.49 ± 0.28.

As to IESKIPLNMEEPPVEEPEPKPDRL [SLC19A2], the protein stability index under setting [1] turned out to be 5.36 ± 0.24 and the protein stability index under setting [2] worked out at 5.57 ± 0.12.

Consider IETSALDSTNVEAAFQTILTEIYR [RAB11A], for which the protein stability index reads like this: under setting [1], 2.35 ± 0.074; under setting [2], 2.44 ± 0.44.

For IFEDRIRGIDIIKWMERYLRDKTV [TRAF3IP2], the protein stability index runs as follows: under setting [1], 2.02 ± 0.56; under setting [2], 1.99 ± 0.23.

On to IFQEQQKKWQQYRSVRRERLKEMK [FAM9B], for which the protein stability index reads like this: under setting [1], 3.22 ± 0.29; under setting [2], 3.22 ± 0.39.

Consider IGALTYFAQADALKGTLVSTLKEV [ACSBG2], for which the protein stability index is, setting by setting: under setting [1], 2.21 ± 0.41; under setting [2], 2.25 ± 0.56.

Regarding IGYVHIYLKGQREKSEKINAMLKG [GOSR1], the protein stability index is 2.21 ± 0.14 under setting [1] and 2.67 ± 0.17 under setting [2].

Sequence IICEAHKVLGNRWAEIAKMLPGRT [MYBL2] had a protein stability index under setting [1] of 2.25 ± 0.099 and a protein stability index under setting [2] of 2.2 ± 0.16.

Regarding IIDYLEQTFLDERTPRLMPDKESM [GDAP1], the protein stability index by setting is: under setting [1], 2.6 ± 0.27; under setting [2], 2.82 ± 0.28.

IKLREYEAALNSKDAALATALGDK [LMNB1]: the protein stability index is, setting by setting: under setting [1], 4.076 ± 0.039; under setting [2], 4.38 ± 0.15.

Regarding IKSVLWQTLQALNFCHIHNCIHRD [CDKL4], the protein stability index is 3.15 ± 0.99 under setting [1] and 2.99 ± 0.72 under setting [2].

Turning to ILIQHQKAKHFKCHICHKKLYTGP [ZNF207], the protein stability index is, setting by setting: under setting [1], 2.44 ± 0.12; under setting [2], 1.88 ± 0.38.

As for ILVYDIANRWSFEGMDRWIKKIEE [RAB40A], the protein stability index under setting [1] amounted to 2.43 ± 0.38 and the protein stability index under setting [2] was determined as 2.34 ± 0.16.

Consider INVGGIKYSLPWTTLDEFPLTRLG [KCNG1], for which the protein stability index turned out to be 2.17 ± 0.6 under setting [1] and 2.06 ± 0.13 under setting [2].

With IPERLSIFCRDTQTVFQKKNLQQT [IQUB], the protein stability index was 2.87 ± 0.19 under setting [1] and 2.98 ± 0.51 under setting [2].

On to IPPPLSSVYAWGGGLGTPLRLPML [NEK8], for which the protein stability index reads like this: under setting [1], 2.32 ± 0.087; under setting [2], 2.32 ± 0.034.

Consider IQEAQSAWKDDFALNSMLRRRFRE [YJU2B], for which the protein stability index by setting is: under setting [1], 3.53 ± 0.14; under setting [2], 3.69 ± 0.25.

On to IQFATPNDFCSFYNILKTCRGHTL [CARM1], for which the protein stability index runs as follows: under setting [1], 2.47 ± 0.41; under setting [2], 2.24 ± 0.22.

For IQQGINAVNQEAMNNAQRIEKWVI [ACSBG2], the protein stability index runs as follows: under setting [1], 2.89 ± 0.44; under setting [2], 2.94 ± 0.51.

For the sequence IQVVLNGMESYQEVTVQRNCCLTL [ZER1], the protein stability index came out at 3.21 ± 0.47 under setting [1] and 3.01 ± 0.73 under setting [2].

Regarding IRCVYILDPWFAGSSNVGINRWRF [CRY1], the protein stability index runs as follows: under setting [1], 3.13 ± 0.51; under setting [2], 3.06 ± 0.51.

IRDFEARKCPVHGKTMELFCQTDQ [TRIM29]: the protein stability index was 3.54 ± 0.28 under setting [1] and 3.76 ± 0.28 under setting [2].

Consider IRIKLDPCHPTVKNWRNFASKWGM [EDARADD], for which the protein stability index by setting is: under setting [1], 3.28 ± 0.61; under setting [2], 2.58 ± 0.76.

As for IRPDPRSRVTDPVGDIVSFMHSFE [FAF2], the protein stability index is, setting by setting: under setting [1], 3.06 ± 0.42; under setting [2], 3.09 ± 0.33.

For IRVKIADLGNACWVHKHFTEDIQT [SRPK2], the protein stability index came to 2.43 ± 0.5 under setting [1] and 2.26 ± 0.57 under setting [2].

Consider ISCVERGWSTPPKCRSTISAEKCG [CFHR2], for which the protein stability index reads like this: under setting [1], 2.88 ± 0.14; under setting [2], 3.09 ± 0.32.

Take ISGGFDRTVAIWDVAEGYRKLSLK [WDR88]: the protein stability index under setting [1] amounted to 3.09 ± 0.49 and the protein stability index under setting [2] worked out at 3.02 ± 0.36.

ISLHPFNPWNWGKLAEAYLNLGPA [C8orf76] displayed a protein stability index under setting [1] of 2.23 ± 1.1 and a protein stability index under setting [2] of 2.18 ± 0.77.

IVATLLILDICEDNVPDPKDVKER [TMEM175] had a protein stability index under setting [1] of 2.46 ± 0.67 and a protein stability index under setting [2] of 2.49 ± 0.37.

As to IVDKCTELLREGRASATTTITTAA [ZBTB22], the protein stability index worked out at 3.78 ± 0.1 under setting [1] and 3.74 ± 0.18 under setting [2].

IVLNKINQILMEKYLKLQDTCRTQ [INTS3]: the protein stability index under setting [1] was 3.59 ± 0.83 and the protein stability index under setting [2] amounted to 3.24 ± 0.61.

With IWAFLDVSFVERILKSQKERQCAL [FBXO39], the protein stability index amounted to 2.41 ± 0.53 under setting [1] and 2.24 ± 0.17 under setting [2].

Turning to IWNILDLVVILLSIVAVGFHIFRT [PKD2L1], the protein stability index by setting is: under setting [1], 3.15 ± 0.64; under setting [2], 2.45 ± 0.84.

As for IYNGGVEAVSTLLGAVAVFAVGYI [SLC19A2], the protein stability index under setting [1] is 2.37 ± 0.26.

For IYSTDLHKLDLNTREWTQLKPNNL [KLHDC10], the protein stability index is, setting by setting: under setting [1], 2.65 ± 0.18; under setting [2], 2.81 ± 0.15.

Regarding KAETKTKKAAESLRRSVEKYNSAR [FCHO1], the protein stability index under setting [1] amounted to 4.64 ± 0.22 and the protein stability index under setting [2] was found to be 4.72 ± 0.075.

The sequence KCRSTISAEKCGPPPPIDNGDITS [CFHR2] yielded a protein stability index under setting [1] of 4.52 ± 0.071 and a protein stability index under setting [2] of 4.45 ± 0.29.

In turn, KCYLNGVKVPGIVRLRTLLCKVLG [CLCN6] returned a protein stability index under setting [1] of 2.93 ± 0.43 and a protein stability index under setting [2] of 2.77 ± 0.36.

For KEETNHSEMAEDLCKIGSERSLVL [IKZF1], the protein stability index runs as follows: under setting [1], 4.69 ± 0.31; under setting [2], 4.86 ± 0.28.

For KFLEICKLSGFMSKLVPAIQNAHK [TPRG1], the protein stability index came to 2.27 ± 0.74 under setting [1] and 2.81 ± 1 under setting [2].

With KGLLKKGACYGDDACFVARHRSAD [PPTC7], the protein stability index is, setting by setting: under setting [1], 4.16 ± 0.56; under setting [2], 4.05 ± 0.25.

As for KHAAFVTPDQKYSMDNTPHTPTPF [MYBL2], the protein stability index is 3.84 ± 0.25 under setting [1] and 3.84 ± 0.35 under setting [2].

Consider KHIPYREHKSLTGTARYMSINTHL [CSNK1G3], for which the protein stability index by setting is: under setting [1], 2.41 ± 0.088; under setting [2], 2.51 ± 0.32.

Turning to KILVGNRLHLAFKRQVPTEQAQAY [RAB40B], the protein stability index runs as follows: under setting [1], 2.07 ± 0.16; under setting [2], 2.5 ± 0.23.

KKAFVWARNIGFKVNSKKMLGKYN [ACSBG2]: the protein stability index runs as follows: under setting [1], 2.5 ± 0.46; under setting [2], 2.35 ± 0.38.

Consider KKALSGLSSRWKNWWIRGILTLTM [CDS1], for which the protein stability index reads like this: under setting [1], 2.14 ± 0.091; under setting [2], 2.22 ± 0.19.

Take KKIYAMGGGSYGKLFESVECYDPR [GAN]: the protein stability index turned out to be 2.94 ± 0.24 under setting [1] and 2.99 ± 0.17 under setting [2].

Take KKNSNMTYEKLSRAMRYYYKREIL [ELF3]: the protein stability index by setting is: under setting [1], 2.33 ± 0.25; under setting [2], 2.27 ± 0.47.

In the case of KKQTKVEFPEARIFEETLNILIYE [KCTD13], the protein stability index is, setting by setting: under setting [1], 2.16 ± 0.2; under setting [2], 2.44 ± 0.5.

On to KKSGEKEQHISKCKKAFREGSRKS [KMT2E], for which the protein stability index is 4.23 ± 0.78 under setting [1] and 4.61 ± 0.27 under setting [2].

Sequence KKSSRNIFSIVFVFFVCFVPYHIA [P2RY14] yielded a protein stability index under setting [1] of 3.31 ± 1 and a protein stability index under setting [2] of 3.53 ± 0.15.

With KLGALLSRCRKLVEYFQQSAVAMY [ZBED1], the protein stability index is, setting by setting: under setting [1], 3.12 ± 0.31; under setting [2], 3.1 ± 0.21.

With KLHYPELYVLKGGYKEFFMKCQSY [CDC25A], the protein stability index stood at 2.42 ± 0.5 under setting [1] and 2.04 ± 0.33 under setting [2].

For the sequence KLTQRLEEMTQRMEALENRLRYR [MATN2], the protein stability index by setting is: under setting [3], 2.7 ± 0.51; under setting [4], 2.79 ± 0.34.

On to KLYGQRERVWALAQEKAADVQARL [FCHSD1], for which the protein stability index reads like this: under setting [1], 3.51 ± 0.32; under setting [2], 3.49 ± 0.3.

As to KMLRKEAAARCVVLDCRPYLAFAA [DUSP5], the protein stability index is, setting by setting: under setting [1], 2.77 ± 0.63; under setting [2], 2.51 ± 0.44.

With KNGLSFIETSALDSTNVEAAFQTI [RAB11A], the protein stability index runs as follows: under setting [1], 3.31 ± 0.27; under setting [2], 3.56 ± 0.43.

Regarding KPDYEYLRTLFTDLFEKKGYTFDY [CSNK1G1], the protein stability index was determined as 2.4 ± 0.47 under setting [1] and 2.31 ± 0.15 under setting [2].
